Experimental data: patent US20180362652A1 (Biogen, published 2018)
Values joined by “and” are separate entries in the source; they are usually repeats but may differ in a detail not shown here. Identical values can stand only once.

How the values were obtained:
[1] = target: T1, human BDCA2 (full-length, cell surface) (human, UniProt Q8WTT0 1-213); experiment: FACS
T1 construct: also called huBDCA2; surface human BDCA2
T1 sequence: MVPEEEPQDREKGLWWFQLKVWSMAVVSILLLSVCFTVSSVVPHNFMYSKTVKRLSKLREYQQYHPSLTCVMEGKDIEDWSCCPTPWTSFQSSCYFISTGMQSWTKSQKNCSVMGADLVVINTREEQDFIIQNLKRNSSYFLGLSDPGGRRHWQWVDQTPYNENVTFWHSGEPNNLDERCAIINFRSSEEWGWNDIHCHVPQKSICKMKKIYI

[2] = target: T2, cynomolgus monkey BDCA2 (full-length, cell surface, E73 SNP form) (cynomolgus monkey, UniProt Q8WTT0 1-213 (human entry)); experiment: FACS
T2 construct: also called cyno BDCA2; surface cynomolgus monkey BDCA2
T2 chain: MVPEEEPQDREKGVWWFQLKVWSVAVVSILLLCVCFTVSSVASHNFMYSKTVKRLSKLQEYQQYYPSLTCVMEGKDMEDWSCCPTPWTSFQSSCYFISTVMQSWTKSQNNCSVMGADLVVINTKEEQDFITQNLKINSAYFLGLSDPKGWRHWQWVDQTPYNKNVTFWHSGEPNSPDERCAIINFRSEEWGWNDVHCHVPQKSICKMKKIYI

[3] = target: T1, human BDCA2 (full-length, cell surface); experiment: flow cytometry, whole blood, Alexa647-labeled BIIB059 on pDCs
Experimental: (§1) Cynomolgus monkey (Toxikon, Inc, Bedford, Mass.) or human peripheral blood (Biogen Idec) were collected in sodium heparin collection tubes and maintained at room temperature. A FACS staining antibody cocktail for identifying pDCs was added to each whole blood aliquot, incorporating CD20, CD14, CD123 and HLA-DR antibodies. […] Blood was incubated on ice, protected from light, for 30 min. […] After a 10-15 min. incubation at room temperature, samples were centrifuged at 1400 rpm for 5 min. The supernatant was decanted, leaving only a pellet of white blood cells (WBC). Each WBC pellet was washed with 5 mL of FACS buffer (1% BSA+0.002% NaAzide+1 mM CaCl₂+1 mM MgCl₂ in PBS), and centrifuged at 1400 rpm for 5 min. The supernatant was decanted, and each WBC pellet was resuspended in 200 μL of FACS buffer and transferred to a 96-well round bottom plate (Fisher Scientific). The plate was centrifuged at 1400 rpm for 5 min. The supernatant was dumped out of the plate, and each WBC pellet was washed with 200 μL of FACS buffer. The plate was centrifuged at 1400 rpm for 5 min, and the supernatant dumped out of the plate. Following washing (as above), WBCs were resuspended in 200 μL of 1% paraformaldehyde (PFA) in PBS, and fixed at 4° C. overnight, protected from light. […] Each WBC pellet was resuspended in 250 μL of FACS buffer and fluorescence intensity measured on a LSRII 4-color FACS machine. […]

[4] = target: T2, cynomolgus monkey BDCA2 (full-length, …); experiment: as above
Experimental: as §1

[5] = target: T2, cynomolgus monkey BDCA2 (full-length, …); experiment: flow cytometry, whole blood pDCs, average of the twelve cynomolgus monkey donors
Experimental: (§2) The maximal values were taken from the values at the plateau in each assay (FIGS. 24 and 25).
(§3) MFI of PE was calculated with FlowJo software, and EC50 curves were generated in GraphPad Prism software.

[6] = target: T3, monomeric huBDCA2 ectodomain (human, UniProt Q8WTT0 45-213); experiment: Octet, mAb from conditioned medium on anti-human Fc tips, monomeric huBDCA2 in solution
T3 construct: Prepared by proteolytic cleavage of the purified muIgG2a Fc-huBDCA2 fusion protein (pEAG2423); also called human BDCA2 ectodomain; human BDCA2 ECD
T3 sequence: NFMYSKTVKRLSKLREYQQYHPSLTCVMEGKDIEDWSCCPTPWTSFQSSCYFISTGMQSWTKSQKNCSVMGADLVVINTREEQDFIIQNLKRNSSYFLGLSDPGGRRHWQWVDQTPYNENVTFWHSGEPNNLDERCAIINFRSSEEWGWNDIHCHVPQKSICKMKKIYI
Experimental: Backmutation to the unpaired cysteine, i.e., S95C, was constructed by site-directed mutagenesis producing plasmid pYL749. Variants S95T, S95A, and S95V were constructed by site-directed mutagenesis producing plasmids pYL750, pYL751, and pYL752, respectively. The full-length light chain cDNA sequences in the resultant plasmids were confirmed by DNA sequencing. […] Conditioned medium was harvested at 2 days post-transfection. […] Conditioned medium containing the C95 variant mAbs was assayed by Octet for binding to human BDCA2 ectodomain. Antibodies from conditioned medium from transiently transfected cells were bound to anti-human Fc tips, then monomeric huBDCA2 was flowed over the Octet tips, to examine binding and dissociation.

[7] = target: T1, human BDCA2 (full-length, cell surface); experiment: flow cytometry, Alexa647-labelled BIIB059 on pDCs in human whole blood, on ice
Experimental: as §1

[8] = target: T2, cynomolgus monkey BDCA2 (full-length, …); experiment: flow cytometry, whole blood pDCs of cynomolgus monkey donor 9, anti-human IgG PE secondary
Experimental: The MFI of PE was calculated in FlowJo software, and the percent of maximal binding, using the 40 μg/mL point as 100%, was computed. Each line represents one individual cynomolgus monkey, for a total of twelve cynomolgus monkeys, and graphed using GraphPad Prism software (four-parameter nonlinear regression curve fit of log-transformed data). Staining was repeated once a week for three weeks total.
as §2, §3

[9] = target: T2, cynomolgus monkey BDCA2 (full-length, …); experiment: flow cytometry, whole blood pDCs of cynomolgus monkey donor 10, anti-human IgG PE secondary
Experimental: as §2, §3

- EC50 [1]: 7 nM
- EC50 [2]: 7 nM
- EC50 [4]: 2 µg/mL and 7 nM to 13 nM
- EC50 [5]: 1.2 µg/mL
- Kd [6]: 0.261 nM
- EC50 [7]: 1.44 µg/mL
- EC50 [8]: 1.4 µg/mL
- EC50 [9]: 1.2 µg/mL
B1: BIIB059 (antibody, human IgG1, kappa)
heavy: not shown
light: DIQLTQSPSSLSASVGDRVTITCKASQSVDYDGDSYMNWYQQKPGKAPKLLIYAASTLESGVPSRFSGSGSGTDFTLTISSLQPEDFATYYCQQANEDPRTFGQGTKVEIKRTVAAPSVFIFPPSDEQLKSGTASVVCLLNNFYPREAKVQWKVDNALQSGNSQESVTEQDSKDSTYSLSSTLTLSKADYEKHKVYACEVTHQGLSSPVTKSFNRGEC
notes: Humanized IgG1 kappa, mature chains; in some assays labelled with Alexa647; also called hu24F4 H4/L1 C95A; H4-L1-C95A (YL751/YL746)
- EC50 [3]: 1 µg/mL to 2 µg/mL (2×) and 7 nM to 13 nM
